Reference: patent publication US20240141060A1 (Novartis, published 2024)
Where a chain is given by its changes, count along the chain named.

T1: Recombinant Human 5′-Nucleotidase/CD73 Protein, CF (R&D Systems Cat: 5795-EN) (human, UniProt P21589 27-547)
T1 construct: Bought protein; also called Human CD73-His; recombinant human CD73; not shown: His tag
T1 sequence (looked up): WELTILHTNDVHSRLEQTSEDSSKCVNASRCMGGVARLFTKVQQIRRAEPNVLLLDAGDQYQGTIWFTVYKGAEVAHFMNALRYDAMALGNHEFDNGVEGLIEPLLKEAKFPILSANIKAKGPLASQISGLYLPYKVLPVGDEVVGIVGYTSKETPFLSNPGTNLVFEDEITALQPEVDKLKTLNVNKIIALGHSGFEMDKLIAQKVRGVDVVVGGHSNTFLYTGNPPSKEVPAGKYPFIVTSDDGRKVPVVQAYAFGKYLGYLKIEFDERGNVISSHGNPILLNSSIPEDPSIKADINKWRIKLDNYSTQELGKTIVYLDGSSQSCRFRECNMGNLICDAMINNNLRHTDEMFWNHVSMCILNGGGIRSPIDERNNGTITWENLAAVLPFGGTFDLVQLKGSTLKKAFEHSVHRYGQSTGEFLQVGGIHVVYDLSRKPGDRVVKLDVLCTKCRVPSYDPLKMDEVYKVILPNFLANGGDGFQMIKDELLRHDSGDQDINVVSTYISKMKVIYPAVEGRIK

T2: Cynomolgus CD73/NT5E Protein (His Tag) (Sino Biological Cat: 90192-C08H-50) (cynomolgus monkey, UniProt A0A2K5V5U7 27-547)
T2 construct: treated as one protein; also called Cynomolgus CD73-His; recombinant cynomolgus monkey CD73; not shown: His tag
T2 sequence: T1 sequence (looked up) with M199T, T350A, V466I

T3: Recombinant Mouse 5′-Nucleotidase/CD73 Protein, CF (R&D Systems Cat: 4488-EN) (mouse, UniProt Q61503 29-549, limits assumed)
T3 construct: Bought protein; also called Mouse CD73-His; recombinant mouse CD73; not shown: His tag
T3 sequence (looked up): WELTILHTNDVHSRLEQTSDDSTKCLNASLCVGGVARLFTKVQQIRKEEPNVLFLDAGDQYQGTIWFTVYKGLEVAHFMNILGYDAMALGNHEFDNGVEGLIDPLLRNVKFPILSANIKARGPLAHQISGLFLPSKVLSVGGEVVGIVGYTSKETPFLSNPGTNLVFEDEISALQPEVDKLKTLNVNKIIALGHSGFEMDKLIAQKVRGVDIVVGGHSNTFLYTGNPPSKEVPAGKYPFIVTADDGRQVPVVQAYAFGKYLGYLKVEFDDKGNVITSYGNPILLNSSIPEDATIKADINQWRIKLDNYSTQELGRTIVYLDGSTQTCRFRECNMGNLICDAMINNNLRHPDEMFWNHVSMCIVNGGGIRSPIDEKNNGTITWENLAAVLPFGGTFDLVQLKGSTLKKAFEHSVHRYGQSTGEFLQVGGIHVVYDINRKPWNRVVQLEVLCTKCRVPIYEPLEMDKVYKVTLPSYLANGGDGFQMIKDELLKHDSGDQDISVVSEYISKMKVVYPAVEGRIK

T4: recombinant rat CD73 (Sino Biological 80375-R08H) (rat, UniProt P21588 29-551)
T4 construct: Bought protein; also called rCD73; rat CD73/His
T4 sequence (looked up): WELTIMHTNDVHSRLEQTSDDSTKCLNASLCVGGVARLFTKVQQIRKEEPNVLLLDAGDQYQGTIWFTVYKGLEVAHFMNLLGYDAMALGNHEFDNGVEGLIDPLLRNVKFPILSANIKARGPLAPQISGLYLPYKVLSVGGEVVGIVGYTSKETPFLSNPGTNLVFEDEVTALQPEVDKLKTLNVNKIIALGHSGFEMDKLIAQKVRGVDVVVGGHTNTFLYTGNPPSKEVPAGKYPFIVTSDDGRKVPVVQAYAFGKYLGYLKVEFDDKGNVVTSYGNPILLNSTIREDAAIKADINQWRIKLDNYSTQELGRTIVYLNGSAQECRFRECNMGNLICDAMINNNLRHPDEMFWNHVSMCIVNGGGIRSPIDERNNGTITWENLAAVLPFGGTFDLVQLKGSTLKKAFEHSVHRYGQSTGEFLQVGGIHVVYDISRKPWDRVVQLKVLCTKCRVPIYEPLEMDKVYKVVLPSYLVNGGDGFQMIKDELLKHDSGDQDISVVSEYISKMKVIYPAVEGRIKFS

B1: 358.C (antibody, V domains shown)
VH: QVQLQESGPGLVKPSETLSLTCTVSGGSISGRYWSWIRQPPGKGLEWIGYIYGTGSTNYNPSLKSRVTISVDTSKNQFSLKLSSVTAADTAVYYCARESQESPYNNWFDPWGQGTLVTVSS
VL: DIQMTQSPSSVSASVGDRVTITCRASQGISSWLAWYQQKPGKAPKLLIYAASSLQSGVPSRFSGSGSGTDFTLTISSLQPEDFATYYCQQGNSFPRTFGGGTKVEIK
B2: 356.C (antibody, V domains shown)
VH: B1 VH with S30E, T54S, N58K
VL: B1 VL
B3: Fab 350 (Fab, V domains shown)
VH: B1 VH with S30E, G31R, R32Y, T54R
VL: DIQMTQSPSSVSASVGDRVTITCRASQGISSWLAWYQQKPGKAPKLLIYAASSLQSGVPSRFSGSGSGTDFTLTISSLQPEDFATYYCQQGNSFPRTFGGGTKVEIKR
notes: Made by a stop between the two proline residues above the core hinge region of the heavy chain; also called 350 Fab; Fab of mAb 350
B4: 350.C (antibody, V domains shown)
VH: B1 VH with S30E, G31R, R32Y, T54R
VL: B1 VL
notes: also called 350 IgG1 format
B5: Fab 373 (Fab, V domains shown)
VH: EVQLLESGGGLVQPGGSLRLSCAASGFTFHRYAMSWVRQAPGKGLEWVSAISGSGMNTYYADSVKGRFTISRDNSKNTLYLQMNSLRAEDTAVYYCARGGLYGSGSYLSDFDLWGRGTLVTVSS
VL: EIVLTQSPATLSVSPGERATLSCRASQSVGSNLAWYQQKPGQAPRLLIYGASTRATGIPARFSGSGSGTEFTLTISSLQSEDFAVYYCQQHNAFPYTFGGGTKVEIKR
B6: 373.A Fab (Fab, V domains shown)
VH: B5 VH
VL: B5 VL

Assays:
[1] = molecular target: T1, Recombinant Human 5′-Nucleotidase/CD73 …; experiment: ForteBio Octet RED384 (BLI), whole IgG on AHQ sensors, 100 nM antigen, 1:1 model
Procedure: (§1) Briefly, ForteBio affinity measurements were performed by loading IgGs on-line onto AHQ sensors. Sensors were equilibrated off-line in assay buffer for 30 min and then monitored on-line for 60 seconds for baseline establishment. Sensors with loaded IgGs were exposed to 100 nM antigen for 3 minutes, and afterwards were transferred to assay buffer for 3 min for off-rate measurement. All kinetics were analyzed using the 1:1 binding model. Antigens used were: [0438] Human CD73-His: Recombinant Human 5′-Nucleotidase/CD73 Protein, CF from R&D Systems Cat: 5795-EN [0439] Mouse CD73-His: Recombinant Mouse 5′-Nucleotidase/CD73 Protein, CF from R&D Systems Cat: 4488-EN [0440] Cynomolgus CD73-His: Cynomolgus CD73/NT5E Protein (His Tag) from Sino Biological Cat: 90192-C08H-50

[2] = molecular target: T2, Cynomolgus CD73/NT5E Protein (His Tag) …; experiment: as above
Procedure: as §1

[3] = molecular target: T3, Recombinant Mouse 5′-Nucleotidase/CD73 …; experiment: as above
Procedure: as §1

[4] = molecular target: T1, Recombinant Human 5′-Nucleotidase/CD73 …; experiment: ForteBio Octet RED384 (BLI), whole IgG on AHQ sensors, 100 nM antigen, 1:1 model; * value approaching upper limit for Kd measurement
Procedure: as §1

[5] = molecular target: T4, recombinant rat CD73 (Sino Biological …); experiment: Biacore SPR, Fab captured by anti-human Fab on CM5 chip, CD73 0.01-90 nM as analyte
Procedure: (§2) Proteins used were as follows: recombinant human CD73 (R&D Systems 5795-EN); recombinant cynomolgus monkey CD73 (Sino Biological 90912-C08H); recombinant mouse CD73 (R&D Systems 4488-EN); and recombinant rat CD73 (Sino Biological 80375-R08H). Anti-human Fab (GE Healthcare Life Sciences) was immobilized on all 4 flow cells (Fc) on a CM5 chip (GE). […] 0.01 nM to 90 nM CD73 (3-fold dilution series) was flown over all 4 Fcs. All samples were diluted in running buffer HBS-EP+(pH 7.4, 0.01 M HEPES, 150 mM NaCl, 3 mM EDTA and 0.05% (v/v) P20).

[6] = molecular target: T1, Recombinant Human 5′-Nucleotidase/CD73 …; experiment: as above
Procedure: as §2

[7] = molecular target: T2, Cynomolgus CD73/NT5E Protein (His Tag) …; experiment: as above
Procedure: as §2

[8] = molecular target: T3, Recombinant Mouse 5′-Nucleotidase/CD73 …; experiment: as above
Procedure: as §2

[9] = molecular target: T3, Recombinant Mouse 5′-Nucleotidase/CD73 …; experiment: ForteBio Octet RED384 (BLI), whole IgG on AHQ sensors, 100 nM antigen, 1:1 model; * value approaching upper limit for Kd measurement
Procedure: as §1

[10] = molecular target: T4, recombinant rat CD73 (Sino Biological …); experiment: Biacore SPR, Fab captured by anti-human Fab on CM5 chip, CD73 as analyte
Procedure: as §2

[11] = molecular target: T3, Recombinant Mouse 5′-Nucleotidase/CD73 …; experiment: as above
Procedure: as §2

[12] = molecular target: T4, recombinant rat CD73 (Sino Biological …); experiment: Biacore SPR, His-tagged CD73 captured by anti-His antibody on CM5 chip, Fab as analyte
Procedure: (§3) The anti-His Ab was directly immobilized onto a CM5 chip surface by amine coupling. The His-tagged human CD73/His, cynomolgus monkey CD73/His, mouse CD73/His or rat CD73/His was flowed over and captured at a desired resonance unit (RU) for an Rmax of 20. Antibody analyte concentrations in serial dilutions of IgG or Fab were flowed over at 60 μL/min. The sensorgrams were analyzed using the manufacturer's software for a 1:1 binding model.

[13] = molecular target: T3, Recombinant Mouse 5′-Nucleotidase/CD73 …; experiment: as above
Procedure: as §3

Row | Binder | Kd [2] [nM] | Kd [3] [nM] | Kd [4] [nM] | Kd [6] [nM] | Kd [7] [nM] | further results
1 | B1 | 0.814 | 3.51 | – | – | – | Kd [1]: 0.317 nM
2 | B2 | 0.693 | 0.401 | 0.243 | – | – | –
3 | B3 | – | – | – | ≤ 0.1 | ≤ 0.1 | Kd [5]: 28.3 nM; Kd [8]: 17.3 nM
4 | B4 | 0.635 | – | 0.248 | – | – | Kd [9]: 0.409 nM
5 | B5 | – | – | – | 13 | 9.46 | binding result [10]: no binding (tested: 0.01 nM to 90 nM CD73); binding result [11]: no binding (tested: 0.01 nM to 90 nM CD73)
6 | B6 | – | – | – | – | – | binding result [12]: no binding; binding result [13]: no binding
